Publication PMC6927645, “Self-association of human beta-galactocerebrosidase: Dependence on pH, salt, and surfactant” (PLoS ONE, 2019)

Target: the molecule itself
Assay: AUC; sedimentation velocity dilution series, 40,000 rpm, 20°C, Rayleigh optics; 5 mM sodium phosphate pH 6.0 with 50, 150 or 500 mM NaCl; Wide Distribution Analysis and fits in SedAnal; self-association of monomer to higher oligomers

B1: recombinant human galactocerebrosidase (hGALC) (enzyme, UniProt P54803 43-685, looked up)
chain: YVLDDSDGLGREFDGIGAVSGGGATSRLLVNYPEPYRSQILDYLFKPNFGASLHILKVEIGGDGQTTDGTEPSHMHYALDENYFRGYEWWLMKEAKKRNPNITLIGLPWSFPGWLGKGFDWPYVNLQLTAYYVVTWIVGAKRYHDLDIDYIGIWNERSYNANYIKILRKMLNYQGLQRVKIIASDNLWESISASMLLDAELFKVVDVIGAHYPGTHSAKDAKLTGKKLWSSEDFSTLNSDMGAGCWGRILNQNYINGYMTSTIAWNLVASYYEQLPYGRCGLMTAQEPWSGHYVVESPVWVSAHTTQFTQPGWYYLKTVGHLEKGGSYVALTDGLGNLTIIIETMSHKHSKCIRPFLPYFNVSQQFATFVLKGSFSEIPELQVWYTKLGKTSERFLFKQLDSLWLLDSDGSFTLSLHEDELFTLTTLTTGRKGSYPLPPKSQPFPSTYKDDFNVDYPFFSEAPNFADQTGVFEYFTNIEDPGEHHFTLRQVLNQRPITWAADASNTISIIGDYNWTNLTIKCDVYIETPDTGGVFIAGRVNKGGILIRSARGIFFWIFANGSYRVTGDLAGWIIYALGRVEVTAKKWYTLTLTIKGHFTSGMLNDKSLWTDIPVNFPKNGWAAIGTHSFEFAQFDNFLVEATR
modifications: heavily glycosylated; glycan structures not determined
notes: human galactocerebrosidase (GALC); The protein was recovered from the culture broth, and the computed 73 kDa protein moiety fits the precursor without its signal peptide (surmised); No tag is mentioned; also called human beta-galactocerebrosidase; galactocerebrosidase enzyme; source: virus filtration; ultrafiltration/diafiltration)
- stoichiometry N: ≥ 4
